Legend:
Dll4 [1] = assay: flow cytometry: recombinant NOTCH1-Fc + PE anti-IgG Fc on DLL4-expressing Cf2Th cells pre-treated with control IgG
Dll4 [2] = assay: flow cytometry: recombinant NOTCH1-Fc + PE anti-IgG Fc on DLL4-expressing Cf2Th cells pre-treated with control IgG; gate PE+
Dll4 [3] = assay: flow cytometry: recombinant NOTCH1-Fc + PE anti-IgG Fc on DLL4-expressing HEK293T cells pre-treated with control IgG; gate PE+
porcine DLL4 [4] = target: T1, porcine DLL4 (porcine, UniProt A0A4X1URL1 27-529); assay: SPR Biacore 3000, antibody captured on anti-rat Fc (80 RU), scouting at 20 nM and 100 nM analyte
T1 construct: Construct not described (pig DLL4 ECD is named only for hybridoma screening); also called pig DLL4; porcine DDL4
T1 sequence (A0A4X1URL1 entry or part of it): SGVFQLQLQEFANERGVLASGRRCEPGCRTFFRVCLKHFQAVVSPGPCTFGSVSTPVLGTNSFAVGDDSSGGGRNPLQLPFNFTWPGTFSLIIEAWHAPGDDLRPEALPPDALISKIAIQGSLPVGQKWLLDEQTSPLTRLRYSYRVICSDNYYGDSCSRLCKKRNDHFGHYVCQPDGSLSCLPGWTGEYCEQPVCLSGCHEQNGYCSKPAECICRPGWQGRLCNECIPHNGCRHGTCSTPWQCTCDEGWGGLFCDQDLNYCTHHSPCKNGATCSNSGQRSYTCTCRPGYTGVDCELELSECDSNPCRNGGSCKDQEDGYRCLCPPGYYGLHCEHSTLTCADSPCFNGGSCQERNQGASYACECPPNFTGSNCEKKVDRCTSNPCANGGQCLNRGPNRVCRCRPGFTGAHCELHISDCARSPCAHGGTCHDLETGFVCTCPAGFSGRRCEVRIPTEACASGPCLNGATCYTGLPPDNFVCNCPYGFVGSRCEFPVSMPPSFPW
Procedure: (§1) Binding experiments were performed on Biacore 3000 at 25° C. Flow cell 2, 3 and 4 of the CM5 chip were coated with the goat anti-rat Fc Capture Ab using EDC/NHS the amine coupling method as per GE manufacturer's instruction. The unoccupied sites were blocked with 1M ethanolamine. Three test antibodies were captured at an RU as indicated on flow cell 2, 3 and 4. Ag was flowed over the chip. Binding of antigen to the antibodies was monitored in real time. From the observed kₒₙ and koff, KD was determined. For the interactions with fast off rate, steady state kinetics was used to determine KD.

human DLL1 [5] = target: T2, human DLL1 (human, UniProt O00548 18-545, limits assumed); assay: SPR Biacore 3000, antibody captured on anti-rat Fc (220 RU), scouting
T2 construct: Construct not described; also called Hu.DLL1
T2 sequence (looked up): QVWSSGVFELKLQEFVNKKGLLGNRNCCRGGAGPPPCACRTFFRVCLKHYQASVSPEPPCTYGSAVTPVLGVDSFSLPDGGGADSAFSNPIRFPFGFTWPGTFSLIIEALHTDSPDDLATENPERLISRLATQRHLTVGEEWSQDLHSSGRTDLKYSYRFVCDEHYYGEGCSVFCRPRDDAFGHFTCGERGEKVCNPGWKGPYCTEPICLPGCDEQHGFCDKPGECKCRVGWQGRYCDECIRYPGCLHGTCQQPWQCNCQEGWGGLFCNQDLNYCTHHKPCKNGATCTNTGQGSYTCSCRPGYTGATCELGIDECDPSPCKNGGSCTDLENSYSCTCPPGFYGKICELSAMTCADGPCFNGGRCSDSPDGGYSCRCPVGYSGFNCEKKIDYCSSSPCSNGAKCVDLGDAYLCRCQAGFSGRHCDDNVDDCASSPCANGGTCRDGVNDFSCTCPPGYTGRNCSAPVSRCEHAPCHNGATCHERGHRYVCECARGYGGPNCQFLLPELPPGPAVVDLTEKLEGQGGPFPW
Procedure: as §1
(§2) Scouting analysis was performed using a single analyte concentration of 100 nM. At this concentration, binding should be observed even if the ligand binding affinity is weak. Flow cell 1 response was used for reference subtraction.

human DLL4 [6] = target: T3, human DLL4 (human, UniProt Q9NR61 27-529, limits assumed); assay: SPR Biacore 3000, antibody captured on anti-rat Fc (140 RU), full kinetics, analyte 0-12.5 nM
T3 construct: also called Hu.DLL4; HuDLL4
T3 sequence (Q9NR61 27-529 limits assumed): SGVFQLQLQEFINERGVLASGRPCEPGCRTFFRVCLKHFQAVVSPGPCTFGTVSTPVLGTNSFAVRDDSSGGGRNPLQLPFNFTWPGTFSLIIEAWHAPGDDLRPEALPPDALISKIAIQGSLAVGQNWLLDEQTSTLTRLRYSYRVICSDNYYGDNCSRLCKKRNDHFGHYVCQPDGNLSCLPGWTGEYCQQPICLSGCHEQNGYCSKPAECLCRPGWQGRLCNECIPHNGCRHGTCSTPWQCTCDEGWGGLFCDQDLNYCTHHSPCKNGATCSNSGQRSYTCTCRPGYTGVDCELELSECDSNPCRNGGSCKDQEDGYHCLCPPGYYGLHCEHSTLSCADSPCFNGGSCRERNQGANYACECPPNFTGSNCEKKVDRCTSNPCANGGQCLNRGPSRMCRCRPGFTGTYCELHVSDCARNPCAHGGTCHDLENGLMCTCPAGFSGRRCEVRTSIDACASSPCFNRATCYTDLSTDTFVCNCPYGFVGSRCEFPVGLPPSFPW
Procedure: as §1

human DLL4 [7] = target: T3, human DLL4; assay: SPR Biacore 3000, antibody captured on anti-rat Fc (220 RU), scouting at 100 nM analyte
Procedure: as §1, §2

porcine DLL4 [8] = target: T1, porcine DLL4; assay: SPR Biacore 3000, antibody captured on anti-rat Fc (110 RU), full kinetics, analyte 0-50 nM
Procedure: as §1

human DLL4 [9] = target: T3, human DLL4; assay: SPR Biacore 3000, antibody captured on anti-rat Fc (170 RU), scouting at 100 nM analyte
Procedure: as §1, §2

human DLL4 [10] = target: T3, human DLL4; assay: SPR Biacore 3000, antibody captured on anti-rat Fc (90 RU), full kinetics, analyte 0-25 nM
Procedure: as §1

human DLL4 [11] = target: T3, human DLL4; assay: SPR Biacore 3000, full kinetics, against 8D2 as reference
Procedure: as §1

human DLL1 [12] = target: T2, human DLL1; assay: head of the antibody's table; assay not named
human DLL4 [13] = target: T3, human DLL4; assay: head of the antibody's table; summary bound, assay and unit not named there
porcine DLL4 [14] = target: T1, porcine DLL4; assay: SPR Biacore 3000, antibody captured on anti-rat Fc (80 RU), full kinetics, analyte 0-50 nM
Procedure: as §1

human DLL1 [15] = target: T2, human DLL1; assay: SPR Biacore 3000, antibody captured on anti-rat Fc (161 RU), scouting
Procedure: as §1, §2

porcine DLL4 [16] = target: T1, porcine DLL4; assay: SPR Biacore 3000, antibody captured on anti-rat Fc (75 RU), scouting at 20 nM and 100 nM analyte
human DLL4 [17] = target: T3, human DLL4; assay: SPR Biacore 3000, antibody captured on anti-rat Fc (161 RU), scouting at 100 nM analyte
Procedure: as §1, §2

porcine DLL4 [18] = target: T1, porcine DLL4; assay: SPR Biacore 3000, antibody captured on anti-rat Fc (130 RU), full kinetics, analyte 0-200 nM
Procedure: as §1

Chain of Dll4 (chain, as listed by the source limits assumed): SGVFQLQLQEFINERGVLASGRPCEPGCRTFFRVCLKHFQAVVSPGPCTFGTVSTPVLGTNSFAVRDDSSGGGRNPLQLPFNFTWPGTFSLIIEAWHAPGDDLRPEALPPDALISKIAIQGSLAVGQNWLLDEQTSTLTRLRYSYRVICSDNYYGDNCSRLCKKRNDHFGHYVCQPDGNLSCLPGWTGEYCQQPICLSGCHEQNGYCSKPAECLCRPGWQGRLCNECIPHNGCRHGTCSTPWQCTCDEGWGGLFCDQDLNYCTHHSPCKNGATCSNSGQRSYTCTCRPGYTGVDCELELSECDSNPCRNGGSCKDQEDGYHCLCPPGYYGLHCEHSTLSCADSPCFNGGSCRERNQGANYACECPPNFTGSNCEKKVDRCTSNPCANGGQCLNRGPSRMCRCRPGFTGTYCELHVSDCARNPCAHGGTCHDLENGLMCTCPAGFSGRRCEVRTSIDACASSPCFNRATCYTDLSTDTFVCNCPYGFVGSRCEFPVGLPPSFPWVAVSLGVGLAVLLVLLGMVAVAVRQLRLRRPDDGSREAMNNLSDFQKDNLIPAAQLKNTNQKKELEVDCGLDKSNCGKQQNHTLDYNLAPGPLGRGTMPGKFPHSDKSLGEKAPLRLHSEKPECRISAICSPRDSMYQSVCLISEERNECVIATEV

NOTCH1-Fc (Fc fusion)
PE positive cells (%) (Dll4 [1]): 16.8% | PE positive cells (%) (Dll4 [2]): 11% | PE positive cells (%) (Dll4 [3]): 9.6%

B1: Monoclonal Antibody 8D2 (antibody, V domains shown)
VH: SGGGLVQPGRSMKLSCAASGFTFSNYDMAWVRQDPKKGLEWVATISYDGRSTYYRDSVKGRFTISRDNAKSTLYLQMDSLRSEDTATYYCKDYDGHYHPYGMEAWGQGISVTVSS
VL: DIVLTQSPALAVTLGQRATISCRASQSVTISNYNLMQWYQQRPGRQPKLLIYDASNLASGIPARFSGSGSGTDFTLTIDPVQADDIATYYCQQSRDDPRTFGGGTKLELR
notes: Rat hybridoma monoclonal antibody, IgG type (captured by goat anti-rat Fc); also called BMH-8D2-D10; rat 8D2
Kd (porcine DLL4 [4]): 9.95 nM | koff (porcine DLL4 [4]): 0.00171 s⁻¹ | kon (porcine DLL4 [4]): 172000 M⁻¹ s⁻¹ | binding result (human DLL1 [5]): no binding (tested: 100 nM) | Kd (human DLL4 [6]): 2.12 nM | koff (human DLL4 [6]): 0.00161 s⁻¹ | kon (human DLL4 [6]): 759000 M⁻¹ s⁻¹ | Kd (human DLL4 [7]): 2.27 nM | koff (human DLL4 [7]): 0.00108 s⁻¹ | kon (human DLL4 [7]): 474000 M⁻¹ s⁻¹ | Kd (porcine DLL4 [8]): 7.21 nM | koff (porcine DLL4 [8]): 0.00182 s⁻¹ | kon (porcine DLL4 [8]): 253000 M⁻¹ s⁻¹

B2: Monoclonal Antibody 8C2 (antibody, V domains shown)
VH: QVQLKESGPGLVQPSQTLSLTCTVSGISISIYGVSWVRQPPGKGLEWMGGIWGDGSTDYNSALKSRLSLSRDTSKSQVFLKMNSLQTEDTAIYFCTLSGDFDYWGHGVLVTVSS
VL: DIQLTQSPASLSASLDEIVTITCQASLDIGNWLAWYQQKTGKSPQLLIYGATSLAGGVPSRFSGSRSGTQYSLKISKLQVEDTGIYYCLQHYRAPFTFGSGTKLEI
notes: Rat hybridoma monoclonal antibody, IgG type (captured by goat anti-rat Fc); also called BMH-8C2-D10; BMH-8C2-D4
Kd (porcine DLL4 [4]): 15.4 nM | koff (porcine DLL4 [4]): 0.00162 s⁻¹ | kon (porcine DLL4 [4]): 106000 M⁻¹ s⁻¹ | Kd (human DLL4 [9]): 3.68 nM | koff (human DLL4 [9]): 0.000505 s⁻¹ | kon (human DLL4 [9]): 137000 M⁻¹ s⁻¹ | Kd (human DLL4 [10]): 0.343 nM | koff (human DLL4 [10]): 0.000439 s⁻¹ | kon (human DLL4 [10]): 1.28e+06 M⁻¹ s⁻¹ | fold higher affinity than 8D2 (human DLL4 [11]): ~10 fold | fold lower off rate than 8D2 (human DLL4 [11]): 4 fold | binding result (human DLL1 [12]): no binding | kon (human DLL4 [13]): > 500000 M⁻¹ s⁻¹ | Kd (porcine DLL4 [14]): 7.07 nM | koff (porcine DLL4 [14]): 0.00198 s⁻¹ | kon (porcine DLL4 [14]): 281000 M⁻¹ s⁻¹

B3: Monoclonal Antibody 2H10 (antibody, V domains shown)
VH: QVQVKESGPGLVQPSQTLSLTCIVSGFSLSSYHVSWVRQPPGKSLVWMGTIWAGGGTNYNSAVQSRLSISRDTSKSQVFLKVNSLQPEDTGTYYCARHYYDGYYHGPYFDYWGQGVMVTV
VL: SPASLSASLGETVTFECRASEDIYTNLAWYQQKPGNSPQLLIYDANTLADGVPSRFSGSGSGTQFSLKINSLQSEDVASYFCQQYDSYPWTFGGGTKLELRR
notes: Rat hybridoma monoclonal antibody, IgG type (captured by goat anti-rat Fc); also called BMH-2H10-A7
binding result (human DLL1 [15]): no binding (tested: 100 nM) | Kd (porcine DLL4 [16]): 1240 nM | koff (porcine DLL4 [16]): 0.00345 s⁻¹ | kon (porcine DLL4 [16]): 2790 M⁻¹ s⁻¹ | Kd (human DLL4 [17]): 88.6 nM | koff (human DLL4 [17]): 0.00109 s⁻¹ | kon (human DLL4 [17]): 12400 M⁻¹ s⁻¹ | Kd (porcine DLL4 [18]): 9370 nM | koff (porcine DLL4 [18]): 0.00276 s⁻¹ | kon (porcine DLL4 [18]): 295 M⁻¹ s⁻¹

— patent US20260008839A1 (BRIGHAM AND WOMEN S HOSPITAL, published 2026)
